These sequences were tested on K4 kissing-loop RNA reporter (assay: apparent KD of K4 kissing-loop reporter; higher = weaker reporter binding). Details: Eterna round: R107; input ligand: tryptophan 2.4 mM.
Description: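 RNA-MaP round R107: designed RNA switches with theophylline, tryptophan, arginine or FMN aptamers are transcribed on-chip within common flanks. They are titrated with a labelled K4 kissing-loop RNA reporter in RNA-MaP buffer (100 mM Tris pH 7.5, 80 mM KCl, 4 mM MgCl2), without ligand or with the indicated ligand. Median apparent KD per design.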
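Note: bound reporter read as fluorescence of individual clusters on recovered sequencing chips by microscopy, with normalized cluster intensities fitted with a binding model.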

“AGUAUGGCAACAUUGCAAGUAGCCGUACCACGAGGACCGGUACGGCCGCCACUCGAUAACUUGCAGUGAUGUUGCAAGUAAGAAU [(T)''-(K)'-(T)'-(T1)-(T2)-(K1)-(K2)_Design4]” and “UGACGUAAAACCGUCGAAUCGCUGUGAGAAGGAGCGGUAAAAUUGCCAGGUAGGUCGCUCACAGCCUCACAGUGAUGUUGUGGGA [Sovetequ]” are within 1.5-fold of each other in “apparent KD of K4 kissing-loop reporter” value: 199 nM for the first, 162 nM for the second.

First: ACAUGUUCCAGUGAUGUUGGCGUACGUGAUACCAGACGAAUAAAAGUCCCUUGGCAGCACAAAUAAGCCAAGAUAGGUGAAUGAU [#04 K4 Theophylline A Exclusion]
Second: AGCUCAGAGUGACUCGAUAAGAGUCACAAACGAGGACCGGUACGGCCGCCACUCGAAACAAAGAGAGUGAUGUUCUCGCUGAGCA [FiskerMod 10 - Jieux - Same State Tryptophan A]
The “apparent KD of K4 kissing-loop reporter” value of the first is 1.8-fold lower: 405 nM for the first, 713 nM for the second.

Compared with “CUAGGCAACACAGGAUAUGUCCGAGUGAUGUUCGAGCCUUUCCAUUGACGAAAUUAAUGGUGGGUGACAGAAGGGUGAGUGCUGA [Xezaqu]”, “UUGCAUGCUAGGGAAACCUAGCAUGCAUGCCGAGGACCGGUACGGCCGCCACUCGAACGAGUGAUGUUCGUUGACCAAAAUAAAA” is 1.5-fold lower in “apparent KD of K4 kissing-loop reporter” value: 432 nM for the first, 282 nM for the second.

Compared with “CGCAGUGAUGUUGCUAUUAUUCUUGAUUAACGAGGACCGGUACGGCCGCCACUCGAUUUCUAUCUAAUUUAGUGUUAUGUUGAUU [JR_ExcTryptoA_Sub007]”, “AAGCAGUCACUCGAAACCAUCGAAGAUGGUCGAGGACCGGUACGGCCGCCACUCGGAGUGAUGUUCCGAAGACUGCAAAAUAAAA [#SwitchBubble 10]” is 2.9-fold higher in “apparent KD of K4 kissing-loop reporter” value: 256 nM for the first, 751 nM for the second.

First: UGGCGGCAAGGGUUAUUGGAAAGUAUUCGACGAGGACCGGUACGGCCGCCACUCGAACACCAGUGAUGUUGGUCUGGCUUAAGCC [Exclusion Tryptophan A GF 21]
Second: UGAGUUAGACAAAAGUCUAGCUCUGGUGAAGGAGCGUCCGAAAGGACAGGUAGGUCGCACCACCUGAGUGAUGUUCAGAAUCCUU [KL-SSArg-A22]
The “apparent KD of K4 kissing-loop reporter” value of the first is 1.7-fold lower: 279 nM for the first, 468 nM for the second.

First: UUUGUAUCGGGAAGGAGCGUGAAUGAUAAUGAAUAUAGUGAUGUUAUAUAUAAGAACGAAUCACAGGUAGGUCGCCCGGAUGAGU [SSArgB.N]
Second: CGAGAGCUCUUGUUUGGAUGUGUUUUAUGGCGAGGACCGGUACGGCCGCCACUCGGGUGAUGUUAGUGAUGUUGAUGUAGUGAUG [qzxmullin]
The “apparent KD of K4 kissing-loop reporter” value of the first is 5-fold higher: 460 nM for the first, 91.4 nM for the second.

Compared with “UAUCCUCGCUGAAGGAGCGAGCAUGAAGCAGUGAUGUUCCGAGCGAGUGAUGUUCGCAUAGCUCAGGUAGGUCGCAGUGGGAUUU [Same State Arginie B GF 17]”, “GGUGACAGCCAGGAGUGAUGUAUAGAAUAGCGAGGACCGGUACGGCCGCCACUCGUGAAGAGAAGGGAGUGAUGUUCCGUAAUGG [Kazoo C]” is 3.8-fold lower in “apparent KD of K4 kissing-loop reporter” value: 530 nM for the first, 140 nM for the second.

Going from “UUGGAUUGAUGAGAGUUGAUUUGGUAGGAAGGAGCGGCCGAAAGGCCAGGUAGGUCGCCUAUUGACAGUGAUGUUGUUAUAUGGU [#16]” to “UAUCUAUGCUCGGCCGCCACUAGGACCGGGAGGUAACUAGUGAUGUUAGUAUCUUCGGCCGCCACUAGGACCGGGAGUGUAGAUA [KL-SSTryp-B17 #DoubleAptamer]”, the “apparent KD of K4 kissing-loop reporter” value falls from 226 nM to 74.6 nM (3-fold).

First: CGUGCCCGGCCGGAUACCAGUGACCCGCUGGGAACCGCGGGCCCAGAGUGAUGUUCGGGACACCCUUGGCAGCCGCCUGGGCUGC [#2 Same State - Theophylline B Attempt #14 (HarryS)]
Second: AAACAAGAUGCAGGAUAUACGGACCCAGUGAUGUUGGGUAGAAUUGUCCCGGCAAUCCUUGUGGCAGUAGAAGGGCAAUAAAAGA [Gexeraora]
The “apparent KD of K4 kissing-loop reporter” value of the first is 2.7-fold higher: 415 nM for the first, 151 nM for the second.

First: AAACUUGCAGUGAUGUUGCAAGUAGGUGAUACCAGCAUCGAAAGAUGCCCUUGGCAGCACCAUCUUGUAACAUAGGUAUCACCAA [(H1)-(H2)-(T1)-(T2)-(H)'-(T)'_Design4]
Second: AAACAUCACUGGGAGUGAUGUUCUCAGUGACGAGGACCGGUACGGCCGCCACUCGCGAGAGAACUAGUCUAGUCUUGACUGCAUU [Excl Tryptophan A V14]
The “apparent KD of K4 kissing-loop reporter” value of the first is 1.8-fold lower: 225 nM for the first, 398 nM for the second.

First: UGUCGUUCUAGUGAUGUUAGGACAGUUAUGAAGGAUAUACACACUCGUAGAAGGUCAGCUGCGGAAUGGCGAUUACGGUGAUUCG [theeternabot_sameState_KL_FMN_A_39]
Second: GUGCGGCUAGUGAUGUUGGUUGCGUGGGAAGGAGCGCAGUAAAAUGCAGGUAGGUCGCCCGCAUCUCUGAUAAAAGAUUAAUUCA [KL-SSArg-A9]
The “apparent KD of K4 kissing-loop reporter” value of the first is 1.7-fold lower: 136 nM for the first, 228 nM for the second.

Compared with “CACGCCUGUUGUCUGGUAGACAGAUCAGAUACCAGACAUAGUGAUGUCCCUUGGCAGCUGAACAUCCAGUGAUGUUGGAUGCGUU [Theo A SS t11]”, “CCUAUCUCAUACGAUACCAGUCAAUAUAAACGAGUGAUGUUCGAAAUAAUAUGCCAUCACGACCCUUGGCAGCGUAUGGGAUAGG [Ex Theophylline B K4 6]” is 2.9-fold lower in “apparent KD of K4 kissing-loop reporter” value: 371 nM for the first, 126 nM for the second.

First: GGCGGCCGCGCGUAAGCGCGGCCGGCCGAUACCAGCGCGACGGCGCGCCCUUGGCAGCGGCGCCGAGUGAUGUUCGGCCUGCCGG [#2 Same State - Theophylline A Attempt #17 (HarryS)]
Second: UAUUUAAAUAAAAUAAAAUAAAUUGCUGAUACCAGAGUCAAUUGACUCCCUUGGCAGCGGAUCGAGUGAUGUUCGUAAAAUUUAU [AK2.1 SS Theophylline A]
The “apparent KD of K4 kissing-loop reporter” value of the first is 19-fold higher: 596 nM for the first, 31.9 nM for the second.

With “AAUUUAUUAACUGAUACCAGACUUUAGCGCGUUUAUAAGUCAAGUGAUGUUUGACUAAUUGUCCCUUGGCAGCAGUAUUUAUUAA [JR_SSTheophyB_Sub021]” the “apparent KD of K4 kissing-loop reporter” value was 197 nM.
